Positions count from the first letter of the chain named.
B1: FVM09 (antibody, V domains shown)
VH: EVQLVQSGAEVKRPGESLTISCKTSGYSFTDSWVAWVRQMPGKGLEWLGSIYPGDSETKYNPSFQGHVTISADKSVTTTYLKWSSLKASDTATYYCVKGSETWGQGVLVTVSS
VL: QLVLTQPASLSASPGASASLTCTFSGGINVAGYNILWYQQKAGSPPRYLLRYKSDSTKDQGSGVPSRFSGSKDASANTGILRISGLQSEDEADYYCAIGHSSGWIFGGGTRLTVL
B2: FVM17 (antibody, V domains shown)
VH: B1 VH with V34I, A35S, L48M, E57D, T58A, K59R, V76I, T77S
VL: B1 VL with L2A, L4V, A16T, A42P, Y48F, T57D, K58N, D59V, R67H
B3: FVM20 (antibody, V domains shown)
VH: B1 VH with Q6E, D31G, V34I, A35S
VL: B1 VL with Q1N, L2F, V3M, P7S, N34H, L36F, K41N, A42P, T57E
B4: FVM04 (antibody, V domains shown)
VH: EVQLVQSGGGLVQPGGSMRLSCEASGLSLSDYFMHWVRQAQGKGLEWIGLIQTKAFTYKTEYPAAVKGRFTISRDDSKNTLYLQMSSLKPEDTALYYCIAVTPDFYYWGQGVLVTVSS
VL: DVVMTQSPSFLSASVGDRVTITCRASQDITINLNWFQHKPGKAPKRLIYVASRLERGVPSRFSGSGSGTEFTLTISSLQPEDFATYYCQQYNNYPLTFGPGTKLDIKRTV

These binders were tested against EBOV GPddmuc (Ebola virus (EBOV)), Q05320 (assay: ELISA). Conditions: remark: other sources report otherwise.
For B1, the EC50 was 7.07 nM. Binder B2 has an EC50 of 0.096 nM. In the case of B3, the EC50 is reported as 0.081 nM. For B4, the EC50 was 0.149 nM.

Each binder was assayed against SUDV GPddmuc (Sudan virus (SUDV)), Q66814 (assay: ELISA). Conditions: remark: other sources report otherwise.
Binder B1 has an EC50 of 7.73 nM. Work on B2 yielded an EC50 of 0.113 nM. B3 showed an EC50 of 0.119 nM. Binder B4 has an EC50 of 0.164 nM.
